Patent US20240209061A1, “FUSION PROTEINS AND USES THEREOF” (Pfizer Inc., priority 2020, published 2024)
Values belong to the compound of their own block, whether it stands above or below them.

Key:
[1] = system: EMT6 murine breast cancer cells; experiment: EMT6 breast cancer model, combination with talazoparib; format: in vivo, mouse
Protocol: EMT6murine breast cancer cells (3×10^5) were orthotopically implanted in the mammary fat pad of female Balb/c mice. When tumors reached ˜90 mm^3 (day 5 after implantation), mice were randomized and dosed with PBS vehicle control, CD80-K89Q-D90Q-E23C-A26C-Fc (0.1 or 1 mg/kg), and/or 0.33 mg/kg talazoparib (Tala). CD80-D90Q-Fc was dosed on Days 0 and 3, talazoparib was dosed daily. Tumor volume was determined by caliper measurements obtained in 2 dimensions and calculated as width^2×length/2. Error bars are depicted as ±SEM

[2] = system: NY-ESO1-TCR+ Jurkat reporter cells; experiment: Jurkat-NYESO1-IL-2-Luc and A375-CD64 co-stimulation assay; format: cell-based, human
Description: Jurkat-IL-2-Luc reporter cells (Promega, Product #J1631) were engineered with T cell receptor, TCR (Wargo J. Cancer Immunol Immunother 2009; Zhao Y. J Immunol 2005, Li Y, Nat Biotechnol 2005) against HLA-A2 restricted NY-ESO1 (SLLMWITQC-SEQ ID NO: 19) epitope using lentiviral transduction system. Human melanoma cells A375, which express human HLA-A*0201, were transduced with lentiviral vector containing endogenous codon for NY-ESO1 gene (Refseq accession NM_001327.2, CCDS14758.1). Upon expression, the construct underwent proteolytic cleavage at the ubiquitin/epitope junction, thus generating free, cytoplasmic epitope, which can be translocated into the endoplasmic reticulum and loaded onto class I HLA. A375-NY-ESO1 positive cells were treated with IFNγ to induce HLA expression and NY-ESO1 antigen presentation. The HLA expression and the antigen presentation was confirmed by Western Blot. The NY-ESO1^+-A375 cells were further engineered to express human FCγRI (CD64, GenBank:AAA58414.1, RefSeq:P12314.1) for cell surface assembly and displaying of CD80-Fc fusion proteins. The expression of FCγRI was confirmed by flow cytometry analysis.
A 96 well culture plate was seeded with NY-ESO1^+-A375 cells or NY-ESO1^+/FCγRI^+-A375 at 40,000 cells per well in 100 µL growth media (RPMI, 10% Heat Inactivated FBS, 200 μg/mL Hygromycin B, 1 mM sodium pyruvate, 0.1 mM MEM NEAA, 1 μg/mL puromycin) containing 10 ng/ml of human IFNγ (R&D Systems, product #285-IF) to induce MHC-A2 expression and grown overnight at 37° C. in CO2 incubator. To each well, NY-ESO1-TCR^+ Jurkat reporter cells, 100,000 (in 20 μL media), were added. 20 μL of serial dilutions of variant CD80-Fc fusion proteins with concentrations ranging from 0-1000 ng/ml (final concentrations per well) was added with appropriate controls. Assay plates were incubated for 6 hours at 37° C. in CO2 incubator. Following equilibration, 80 μL BioGlo luminescence reagent (BioGlo Luciferase assay kit, Promega, G7940) was added into each well. Plates were incubated for 5 minutes before reading luminescence on the EnSight™ plate reader (PerkinElmer).

[3] = system: Jurkat-IL-2-Luc reporter cells; experiment: Jurkat-IL-2-Luc and HCT116-CD64 reporter co-stimulation assay; format: cell-based, human
Description: A T cell co-stimulation assay was designed based on T Cell Activation Bioassay (IL-2) Kit from Promega (Product #J1631). The assay consisted of a genetically engineered Jurkat T cell line that expresses luciferase reporter driven by an IL-2 promoter. Co-engagement of T cell antigen receptor (TCR/CD3) and CD28 co-stimulatory receptor induces activation of T cells and downstream intracellular signaling pathways that in turn regulate the expression of luciferase reporter. As described above, HCT116 human colon cancer cell line was used for TCR engagement using the CDH3×CD3 bispecific and genetically engineered by lentiviral transduction to express human FCγRI.
A 96 well culture plate was seeded with HCT116 parental or HCT116-CD64 cells at 40,000 cells per well in 100 μL RPMI with 10% HI FBS and grown overnight at 37° C. in CO2 incubator. To each well, Jurkat reporter cells (100,000 per well) and 10 μL of the CDH3×CD3 bispecific (8 ng/ml final concentration) were added. 10 μL of serial dilutions of variant CD80-Fc fusion proteins with concentrations ranging from 0-1000 ng/ml (final concentrations per well) was added with appropriate controls. Assay plates were incubated for 6 hours at 37° C. in CO2 incubator for before harvesting culture supernatants and transferring to new plates. Following equilibration, 80 μL of BioGlo luminescence reagent (BioGlo Luciferase assay kit, Promega, G7940) was added into each well. Plates were incubated for 5 minutes before reading luminescence on the EnSight™ plate reader (PerkinElmer).
Jurkat is an immortalized human T cell line, and the Jurkat IL-2-reporter assay assesses the CD28-mediated signaling resulting in activation of the IL-2 promoter. The activity of CD80-Fc fusion proteins was measured using the co-culture HCT116-CD64-Jurkat IL-2 reporter assay, as described in Example 2, but using 20 ng/ml CDH3×CD3 bispecific.

recombinant soluble CD28 = target: T1, recombinant soluble CD28 (Homo sapiens, UniProt P10747); experiment: ELISA binding to recombinant soluble CD28; details: standard ELISA, FIG. 2A
T1 construct: Recombinant soluble CD28 and CTLA-4 proteins (from Creative BioMart, Product #CD28-3910H, CTLA-4-2232H) were immobilized; purchased Creative BioMart CD28-3910H
Protocol: Binding affinity of purified CD80-Fc fusion proteins (WT and variant) to recombinant soluble CD28 and CTLA-4 proteins was determined by standard ELISA. Recombinant soluble CD28 and CTLA-4 proteins (from Creative BioMart, Product #CD28-3910H, CTLA-4-2232H) were immobilized on 96 well microtiter plate (Thermo Scientific, Product #436110) in bicarbonate buffer at 4° C. overnight. After washing with 1×PBS containing 0.05% Tween 20 (wash buffer) plates were incubated with blocking buffer, 5% BSA in PBS, for 1 hour at room temperature. A serial dilution of CD80-Fc fusion proteins and human IgG1 isotype control antibody was prepared in blocking buffer, added into the plate and incubated at room temperature for 1 hour. Following washing 3× with wash buffer, 1:4000 dilution of HRP conjugated secondary anti-human IgG1 antibody (R&D Systems, MAB110-100) was added into the plate and incubated at room temperature for 1 hour. Plates were washed 3× with wash buffer and a 100 μl of LumiGlo (SeraCare, Product #5430-0040) reagent added into each well, incubated for 5 minutes at room temperature before reading luminescence signal in EnSight™ plate reader (PerkinElmer).

[4] = target: CD28 expressed on Jurkat T cell line / human T cells (human) (UniProt P10747); experiment: cell-based or functional assay
[5] = Thermal stability by Differential Scanning calorimetry (DSC); format: physicochemical; details: PBS
Protocol: There is a correlation between the thermal stability of a protein with the overall stability of the protein. Enhanced thermal stability often provides improved manufacturability and longer shelf life/stability. Thermal stability of variant CD80-Fc fusion proteins was assessed by Differential Scanning calorimetry (DSC). Variant CD80-Fc fusion proteins were analyzed using a MicroCal VP-DSC instrument. […] Tables 8-10 show the first thermal transition temperature (Tm1) of CD80-Fc fusion proteins and the enhanced thermal stability of variant CD80-Fc fusion proteins compared to CD80-WT-Fc fusion proteins.

[6] = AC-SINS self-interaction assay; format: physicochemical; details: Table 6
Protocol: Variant CD80-Fc fusion proteins were assessed by measuring non-specific binding using a DNA- and insulin-binding ELISA (Avery et al., MAbs. 2018 February/March; 10(2): 244-255) and for self-interaction in an AC-SINS assay (affinity-capture self-interaction nanoparticle spectroscopy; Liu et al., 2014, mAbs 6:483-92). DNA- and insulin-binding scores were calculated as the signal ratio of the ELISA signal of the CD80-Fc fusion protein at 10 μg/ml to the ELISA signal in the absence of the Fc-fusion protein (buffer only). For the AC-SINS assay, proteins are captured by anti-human Fc antibodies coated on gold nanoparticles. […] The score ranges obtained from these in vitro assays correlate well with in vivo clearance using huFcRn transgenic (Tg32) mouse. Therapeutic proteins with high scores are at high risk for rapid clearance and unfavorable PK and therapeutics that score low are at low risk and favorable PK.

[7] = system: human peripheral blood mononuclear cells (PBMCs); experiment: Human PBMC IL-2 production assay with plate-bound anti-CD3; format: cell-based; details: Donor 418; 0.3 ug/ml anti-CD3
Protocol: The ability of the variant CD80-Fc fusion proteins to promote IL-2 production in the context of anti-CD3 (to stimulate T cell receptor signaling) in human peripheral blood mononuclear cells (PBMCs) was tested. To bind anti-CD3 antibody on the plate, the anti-human-CD3 (clone HIT3a, BD Pharmingen) was incubated in 96-well plates at 4° C. overnight at 1 μg/ml unless otherwise noted. Human PBMCs were isolated from freshly collected human whole blood using Ficoll-Paque Plus. Human PBMCs (100,000 per well) were incubated with plate-bound anti-CD3 and the indicated concentrations of soluble CD80-Fc fusion protein in RPMI+10% HI-FBS, pen/strep, sodium pyruvate and non-essential amino acids. After 48 hours incubation, supernatants were collected and IL-2 measured by the Quantikine human IL-2 ELISA kit from R&D.
Additional CD80-Fc fusion proteins were tested in the same PBMC assay, at the concentration of anti-human-CD3 (clone HIT3a, BD Pharmingen) noted.

Compound: Cn1ncnc1[C@H]1c2n[nH]c(=O)c3cc(F)cc(c23)N[C@@H]1c1ccc(F)cc1 [Talazoparib, (8S,9R)-5-fluoro-8-(4-fluorophenyl)-9-(1-methyl-1H-1,2,4-triazol-5-yl)-8,9-dihydro-2H-pyrido[4,3,2-de]phthalazin-3(7H)-one, reference compound]
% tumor growth inhibition ([1]; Day 20, Talazoparib 0.33 mg/kg alone): 10.9%
Day 20 tumor volume ([1]; Talazoparib 0.33 mg/kg daily alone): 1750.1 mm^3

Compound: CD80-D90N-Fc: variant CD80 ECD (D90N) fused to human IgG1 Fc
enhanced co-stimulation compared to CD80-WT-Fc [2]: about 4 fold

Compound: CD80-K89D-D90Q-Fc: variant CD80 ECD (K89D, D90Q) fused to human IgG1 Fc
enhanced co-stimulation compared to CD80-WT-Fc [2]: about 8 fold
enhanced co-stimulation compared to CD80-WT-Fc [3]: about 4 fold
binding affinity to CD28 compared to WT CD80-Fc (recombinant soluble CD28): increased binding affinity to CD28

Compound: CD80-K89Q-D90Q-161C-Fc: disulfide stabilized variant CD80-Fc fusion protein (K89Q, D90Q, I61C)
DSC Tm1 [5]: 64.10 ± 0.17 °C
AC-SINS Score [6]: −1

Compound: CD80-K89Q-D90Q-V22C-G45C-Fc: disulfide stabilized variant CD80-Fc fusion protein (K89Q, D90Q, V22C, G45C)
DSC Tm1 [5]: 68.67 ± 0.22 °C
AC-SINS Score [6]: −1

Compound: CD80-K89Q-Fc: variant CD80 ECD (K89Q) fused to human IgG1 Fc
binding affinity to CD28 compared to WT CD80-Fc (recombinant soluble CD28): increased binding affinity to CD28

Compound: CD80-T28V-T57V-Fc: non-cysteine stabilized variant CD80-Fc fusion protein
DSC Tm1 [5]: 64 °C
EC50 [7]: 2.64 nM

Compound: CD80-V11L-T62Y-Fc (Fc fusion)
IL-2 EC50, human PBMC assay, donor 418, anti-CD3 0.3 ug/ml [4]: 3.34 nM

Compound: CD80-V11L-T62Y-Fc: non-cysteine stabilized variant CD80-Fc fusion protein
DSC Tm1 [5]: 58.76 ± 0.14 °C
EC50 [7]: 3.34 nM

Compound: CD80-V11L-V22F-Fc (Fc fusion)
IL-2 EC50, human PBMC assay, donor 418, anti-CD3 0.3 ug/ml [4]: 4.95 nM

Compound: CD80-V11L-V22F-Fc: non-cysteine stabilized variant CD80-Fc fusion protein
DSC Tm1 [5]: 61.52 ± 0.12 °C
EC50 [7]: 4.95 nM

Compound: CD80-V22F-T28V-T57V-Fc (Fc fusion)
IL-2 EC50, human PBMC assay, donor 418, anti-CD3 0.3 ug/ml [4]: 5.13 nM

Compound: CD80-V22F-T28V-T57V-Fc: non-cysteine stabilized variant CD80-Fc fusion protein
DSC Tm1 [5]: 64 °C
EC50 [7]: 5.13 nM

Now from value to compound, other results behind:

binding affinity to CD28 compared to WT CD80-Fc (recombinant soluble CD28): increased binding affinity to CD28
Compound: CD80-D90K-Fc: variant CD80 ECD (D90K) fused to human IgG1 Fc
enhanced co-stimulation compared to CD80-WT-Fc [2]: about 4 fold
enhanced co-stimulation compared to CD80-WT-Fc [3]: ~8 fold

IL-2 EC50, human PBMC assay with plate-bound anti-CD3 (average of 5 donors) [4]: 24.2 nM
Compound: CD80-D90Q-E23C-A26C-Fc (Fc fusion)

binding affinity to CD28 compared to WT CD80-Fc (recombinant soluble CD28): increased binding affinity to CD28
Compound: CD80-K89D-D90K-Fc: variant CD80 ECD (K89D, D90K) fused to human IgG1 Fc
enhanced co-stimulation compared to CD80-WT-Fc [3]: ~8 fold

binding affinity to CD28 compared to WT CD80-Fc (recombinant soluble CD28): increased binding affinity to CD28
Compound: CD80-K89D-D90N-Fc: variant CD80 ECD (K89D, D90N) fused to human IgG1 Fc
enhanced co-stimulation compared to CD80-WT-Fc [2]: about 8 fold
enhanced co-stimulation compared to CD80-WT-Fc [3]: about 4 fold

binding affinity to CD28 compared to WT CD80-Fc (recombinant soluble CD28): increased binding affinity to CD28
Compound: CD80-K89D-Fc: variant CD80 ECD (K89D) fused to human IgG1 Fc

IL-2 EC50, human PBMC assay, donor 418, anti-CD3 0.3 ug/ml [4]: 2.64 nM
Compound: CD80-T28V-T57V-Fc (Fc fusion)
